Test results: patent US20220227830A1, “QD DOSING OF GIP RECEPTOR AGONIST PEPTIDE COMPOUNDS AND USES THEREOF” (Takeda Pharmaceutical Company Limited, priority 2020, published 2022)
Starred links: 1 amine or outer side, 2 acyl side, 3 side chain; linkers in the order of their positions; H or OH if unused. Non-standard residues stand in square brackets, D forms with d. Groups on a side chain read outwards from the residue. No end group written: not given here. *: point of attachment. 2OEGgE‑C16DA = O=C(O)CCCCCCCCCCCCCCC(=O)N[C@@H](CCC(=O)NCCOCCOCC(=O)NCCOCCOCC(=O)*)C(=O)O; C15 diacid = O=C(O)CCCCCCCCCCCCCC(=O)*; γGlu = O=C(O)[C@H](CCC(=O)[*:2])N[*:1]; NMeY = CN[C@@H](Cc1ccc(O)cc1)C(=O)O; AEEA = NCCOCCOCC(=O)O; Aib = CC(C)(N)C(=O)O

T1: full-length human GIPR with an N-terminal FLAG tag (human, UniProt P48546 22-466)
T1 sequence (looked up): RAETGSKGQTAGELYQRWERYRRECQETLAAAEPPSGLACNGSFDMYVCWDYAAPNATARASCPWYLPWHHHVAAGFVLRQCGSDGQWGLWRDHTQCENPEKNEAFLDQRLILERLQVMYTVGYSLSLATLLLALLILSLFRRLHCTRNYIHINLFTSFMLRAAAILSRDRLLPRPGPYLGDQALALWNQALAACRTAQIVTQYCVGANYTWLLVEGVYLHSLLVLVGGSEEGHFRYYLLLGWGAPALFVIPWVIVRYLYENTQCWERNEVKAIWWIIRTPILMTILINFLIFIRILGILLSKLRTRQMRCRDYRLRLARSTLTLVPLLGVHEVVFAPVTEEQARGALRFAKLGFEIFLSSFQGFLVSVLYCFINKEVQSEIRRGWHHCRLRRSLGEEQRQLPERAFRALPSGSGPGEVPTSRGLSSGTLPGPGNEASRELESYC

B1: Compound 117 (peptide)
peptide: [NMeY][Aib]EGTFISDYSI[Aib]LDR[Aib]KQ[Aib]DFVNWLLAQR-NH2
modifications: not fully specified (residue 18)
B2: Compound 118 (peptide)
peptide: [NMeY][Aib]EGTFISDYSI[Aib]LDR[Aib]K([AEEA-AEEA-γGlu-C15 diacid])Q[Aib]DFVNWLLAQR-NH2
modifications: N-terminus assumed
SMILES: CC[C@H](C)[C@H](NC(=O)[C@H](Cc1ccccc1)NC(=O)[C@@H](NC(=O)CNC(=O)[C@H](CCC(=O)O)NC(=O)C(C)(C)NC(=O)[C@H](Cc1ccc(O)cc1)NC)[C@@H](C)O)C(=O)N[C@@H](CO)C(=O)N[C@@H](CC(=O)O)C(=O)N[C@@H](Cc1ccc(O)cc1)C(=O)N[C@@H](CO)C(=O)N[C@H](C(=O)NC(C)(C)C(=O)N[C@@H](CC(C)C)C(=O)N[C@@H](CC(=O)O)C(=O)N[C@@H](CCCNC(=N)N)C(=O)NC(C)(C)C(=O)N[C@@H](CCCCNC(=O)COCCOCCNC(=O)COCCOCCNC(=O)CC[C@H](NC(=O)CCCCCCCCCCCCCC(=O)O)C(=O)O)C(=O)N[C@@H](CCC(N)=O)C(=O)NC(C)(C)C(=O)N[C@@H](CC(=O)O)C(=O)N[C@@H](Cc1ccccc1)C(=O)N[C@H](C(=O)N[C@@H](CC(N)=O)C(=O)N[C@@H](Cc1c[nH]c2ccccc12)C(=O)N[C@@H](CC(C)C)C(=O)N[C@@H](CC(C)C)C(=O)N[C@@H](C)C(=O)N[C@@H](CCC(N)=O)C(=O)N[C@@H](CCCNC(=N)N)C(N)=O)C(C)C)[C@@H](C)CC
B3: Compound 119 (peptide)
peptide: [NMeY][Aib]EGTFISDYSIALDR[Aib]KQ[Aib]NFVNWLLAQSPSSGAPPPS-NH2
modifications: not fully specified (residue 18, N-terminus)
B4: Compound 11 (peptide)
peptide: [NMeY][Aib]EGTFISDYSIAK(2OEGgE‑C16DA)DR[Aib]AQ[Aib]NFVNWLLAQK
B5: Compound 121 (peptide)
peptide: [NMeY][Aib]EGTFISDYSIALDR[Aib]AQ[Aib]KFVNWLLAQR-NH2
modifications: not fully specified (residue 21)
B6: Compound 122 (peptide)
peptide: [NMeY][Aib]EGTFISDYSI[Aib]LDRKAQ[Aib]NFVNWLLAQRPSSGAPPPS-NH2
modifications: not fully specified (residue 17)
B7: Compound 123 (peptide)
peptide: [NMeY][Aib]EGTFISDYSI[Aib]LDR[Aib]AQ[Aib]NFVNWLLAQKPSSGAPPPS-NH2
modifications: not fully specified (residue 30)
B8: Compound 124 (peptide)
peptide: [NMeY][Aib]EGTFISDYSI[Aib]KDR[Aib]AQ[Aib]NFVNWLLAQRPSSKKKKKK-NH2
modifications: not fully specified (residue 14, N-terminus)
B9: Compound 125 (peptide)
peptide: [NMeY][Aib]EGTFISDYSIAK([Gly-Gly-Gly-Gly-Gly-γGlu-C15 diacid])DR[Aib]AQ[Aib]NFVNWLLAQSPSSGAPPPS-NH2
modifications: N-terminus assumed
SMILES: CC[C@H](C)[C@H](NC(=O)[C@H](CO)NC(=O)[C@H](Cc1ccc(O)cc1)NC(=O)[C@H](CC(=O)O)NC(=O)[C@H](CO)NC(=O)[C@@H](NC(=O)[C@H](Cc1ccccc1)NC(=O)[C@@H](NC(=O)CNC(=O)[C@H](CCC(=O)O)NC(=O)C(C)(C)NC(=O)[C@H](Cc1ccc(O)cc1)NC)[C@@H](C)O)[C@@H](C)CC)C(=O)N[C@@H](C)C(=O)N[C@@H](CCCCNC(=O)CNC(=O)CNC(=O)CNC(=O)CNC(=O)CNC(=O)CC[C@H](NC(=O)CCCCCCCCCCCCCC(=O)O)C(=O)O)C(=O)N[C@@H](CC(=O)O)C(=O)N[C@@H](CCCNC(=N)N)C(=O)NC(C)(C)C(=O)N[C@@H](C)C(=O)N[C@@H](CCC(N)=O)C(=O)NC(C)(C)C(=O)N[C@@H](CC(N)=O)C(=O)N[C@@H](Cc1ccccc1)C(=O)N[C@H](C(=O)N[C@@H](CC(N)=O)C(=O)N[C@@H](Cc1c[nH]c2ccccc12)C(=O)N[C@@H](CC(C)C)C(=O)N[C@@H](CC(C)C)C(=O)N[C@@H](C)C(=O)N[C@@H](CCC(N)=O)C(=O)N[C@@H](CO)C(=O)N1CCC[C@H]1C(=O)N[C@@H](CO)C(=O)N[C@@H](CO)C(=O)NCC(=O)N[C@@H](C)C(=O)N1CCC[C@H]1C(=O)N1CCC[C@H]1C(=O)N1CCC[C@H]1C(=O)N[C@@H](CO)C(N)=O)C(C)C
B10: Compound 126 (peptide)
peptide: [NMeY][Aib]EGTFISDYSIAK([Gly-Gly-Gly-Gly-Gly-γGlu-C15 diacid])DR[Aib]AQ[Aib]DFVNWLLAQRPSSGAPPPS-NH2
modifications: N-terminus assumed
SMILES: CC[C@H](C)[C@H](NC(=O)[C@H](CO)NC(=O)[C@H](Cc1ccc(O)cc1)NC(=O)[C@H](CC(=O)O)NC(=O)[C@H](CO)NC(=O)[C@@H](NC(=O)[C@H](Cc1ccccc1)NC(=O)[C@@H](NC(=O)CNC(=O)[C@H](CCC(=O)O)NC(=O)C(C)(C)NC(=O)[C@H](Cc1ccc(O)cc1)NC)[C@@H](C)O)[C@@H](C)CC)C(=O)N[C@@H](C)C(=O)N[C@@H](CCCCNC(=O)CNC(=O)CNC(=O)CNC(=O)CNC(=O)CNC(=O)CC[C@H](NC(=O)CCCCCCCCCCCCCC(=O)O)C(=O)O)C(=O)N[C@@H](CC(=O)O)C(=O)N[C@@H](CCCNC(=N)N)C(=O)NC(C)(C)C(=O)N[C@@H](C)C(=O)N[C@@H](CCC(N)=O)C(=O)NC(C)(C)C(=O)N[C@@H](CC(=O)O)C(=O)N[C@@H](Cc1ccccc1)C(=O)N[C@H](C(=O)N[C@@H](CC(N)=O)C(=O)N[C@@H](Cc1c[nH]c2ccccc12)C(=O)N[C@@H](CC(C)C)C(=O)N[C@@H](CC(C)C)C(=O)N[C@@H](C)C(=O)N[C@@H](CCC(N)=O)C(=O)N[C@@H](CCCNC(=N)N)C(=O)N1CCC[C@H]1C(=O)N[C@@H](CO)C(=O)N[C@@H](CO)C(=O)NCC(=O)N[C@@H](C)C(=O)N1CCC[C@H]1C(=O)N1CCC[C@H]1C(=O)N1CCC[C@H]1C(=O)N[C@@H](CO)C(N)=O)C(C)C
B11: Compound 127 (peptide)
peptide: [NMeY][Aib]EGTFISDYSIALDRK([AEEA-AEEA-γGlu-C15 diacid])AQ[Aib]NFVNWLLAQSPSSGAPPPS-NH2
modifications: N-terminus assumed
SMILES: CC[C@H](C)[C@H](NC(=O)[C@H](CO)NC(=O)[C@H](Cc1ccc(O)cc1)NC(=O)[C@H](CC(=O)O)NC(=O)[C@H](CO)NC(=O)[C@@H](NC(=O)[C@H](Cc1ccccc1)NC(=O)[C@@H](NC(=O)CNC(=O)[C@H](CCC(=O)O)NC(=O)C(C)(C)NC(=O)[C@H](Cc1ccc(O)cc1)NC)[C@@H](C)O)[C@@H](C)CC)C(=O)N[C@@H](C)C(=O)N[C@@H](CC(C)C)C(=O)N[C@@H](CC(=O)O)C(=O)N[C@@H](CCCNC(=N)N)C(=O)N[C@@H](CCCCNC(=O)COCCOCCNC(=O)COCCOCCNC(=O)CC[C@H](NC(=O)CCCCCCCCCCCCCC(=O)O)C(=O)O)C(=O)N[C@@H](C)C(=O)N[C@@H](CCC(N)=O)C(=O)NC(C)(C)C(=O)N[C@@H](CC(N)=O)C(=O)N[C@@H](Cc1ccccc1)C(=O)N[C@H](C(=O)N[C@@H](CC(N)=O)C(=O)N[C@@H](Cc1c[nH]c2ccccc12)C(=O)N[C@@H](CC(C)C)C(=O)N[C@@H](CC(C)C)C(=O)N[C@@H](C)C(=O)N[C@@H](CCC(N)=O)C(=O)N[C@@H](CO)C(=O)N1CCC[C@H]1C(=O)N[C@@H](CO)C(=O)N[C@@H](CO)C(=O)NCC(=O)N[C@@H](C)C(=O)N1CCC[C@H]1C(=O)N1CCC[C@H]1C(=O)N1CCC[C@H]1C(=O)N[C@@H](CO)C(N)=O)C(C)C

The binders below were run against full-length human GLP-1R with an N-terminal FLAG tag (human, UniProt P43220 24-463) (assay: cell-based or functional assay).

Binder	Human GLP1R cAMP HEK293T EC50 [nM]
B1	1000
B2	525
B3	1000
B4	145
B5	5.5
B6	20.4
B7	22.9
B8	126
B9	166
B10	589
B11	66.1

The binders below were run against T1, full-length human GIPR with an … (assay: cell-based or functional assay).

Binder	Human GIPR cAMP, HEK293T EC50 [nM]
B1	0.0006
B2	0.0009
B3	0.0005
B4	0.0003
B5	0.0003
B6	0.0004
B7	0.0004
B8	0.004
B9	0.0002
B10	0.0002
B11	0.0005
